US20220282268A1 (UNIVERSITY COURT OF THE UNIVERSITY OF EDINBURGH, published 2022)
Substitutions are numbered along the chain they refer to.

B1: EPYC1 C-terminus (C-ter) (peptide)
chain: GTNPWTGKSKPEIKRTALPADWRKGL
notes: also called C-terminal tail; pGBKT7_C-ter EPYC1
B2: EPYC1 N-terminus, first and second repeat regions (N-ter+2reps) (other)
chain: MATISSMRVGAASRVVVSGRVKTVKVAARGSWRESSTATVQASRASSATNRVSPTRSVLPANWRQELESLRNGNGSSSAASSAPAPARSSSASWRDAAPASSAPARSSSASKKAVTPSRSALPSNWKQELESLRSSSPAPASSAPAPARSSSASWRDAAPASSAPARSSSSKKA
notes: also called pGBKT7_N-ter + 2reps EPYC1
B3: EPYC1 N-terminus and all four repeat regions (N-ter+4reps) (other)
chain: MATISSMRVGAASRVVVSGRVKTVKVAARGSWRESSTATVQASRASSATNRVSPTRSVLPANWRQELESLRNGNGSSSAASSAPAPARSSSASWRDAAPASSAPARSSSASKKAVTPSRSALPSNWKQELESLRSSSPAPASSAPAPARSSSASWRDAAPASSAPARSSSSKKAVTPSRSALPSNWKQELESLRSSSPAPASSAPAPARSSSASWRDAAPASSAPARSSSASKKAVTPSRSALPSNWKQELESLRSNSPAPASSAPAPARSSSASWRDAPASSSSSSADKA
notes: also called pGBKT7_N-ter + 4reps EPYC1
B4: EPYC1 N-terminus, first to third repeat regions (N-ter+3reps) (other)
chain: MATISSMRVGAASRVVVSGRVKTVKVAARGSWRESSTATVQASRASSATNRVSPTRSVLPANWRQELESLRNGNGSSSAASSAPAPARSSSASWRDAAPASSAPARSSSASKKAVTPSRSALPSNWKQELESLRSSSPAPASSAPAPARSSSASWRDAAPASSAPARSSSSKKAVTPSRSALPSNWKQELESLRSSSPAPASSAPAPARSSSASWRDAAPASSAPARSSSASKKA
notes: also called pGBKT7_N-ter + 3reps EPYC1
B5: EPYC1 N-terminus plus first repeat region (N-ter+1rep) (other)
chain: MATISSMRVGAASRVVVSGRVKTVKVAARGSWRESSTATVQASRASSATNRVSPTRSVLPANWRQELESLRNGNGSSSAASSAPAPARSSSASWRDAAPASSAPARSSSASKKA
notes: also called pGBKT7_N-ter + 1rep EPYC1
B6: EPYC1 N-terminus (N-ter) (other)
chain: MATISSMRVGAASRVVVSGRVKTVKVAARGSWRESSTATVQASRASSATNR
notes: also called pGBKT7_N-ter EPYC1
B7: synthetic EPYC1 4 reps (four tandem copies of the first repeat region) (designed binder)
chain: VSPTRSVLPANWRQELESLRNGNGSSSAASSAPAPARSSSASWRDAAPASSAPARSSSASKKAVSPTRSVLPANWRQELESLRNGNGSSSAASSAPAPARSSSASWRDAAPASSAPARSSSASKKAVSPTRSVLPANWRQELESLRNGNGSSSAASSAPAPARSSSASWRDAAPASSAPARSSSASKKAVSPTRSVLPANWRQELESLRNGNGSSSAASSAPAPARSSSASWRDAAPASSAPARSSSASKKA
notes: also called pGBKT7_synthEPYC1 4reps
B8: synthetic EPYC1 2 α-helices 1 rep (first repeat region with an additional α-helix inserted) (designed binder)
chain: VSPTRSVLPANWRQELESLRNNWRQELESLRNGNGSSSAASSAPAPARSSSASWRDAAPASSAPARSSSASKKA
notes: also called pGBKT7_synthEPYC1 2α-helices 1rep
B9: synthetic EPYC1 1 rep (first repeat region of EPYC1, one copy) (other)
chain: VSPTRSVLPANWRQELESLRNGNGSSSAASSAPAPARSSSASWRDAAPASSAPARSSSASKKA
notes: also called native 1 rep variant; EPYC1 1 rep (wildtype)
B10: synthetic EPYC1 α-helix knockout A (first repeat region with a point mutation in the α-helix) (designed binder)
chain: B9 chain with L19R
notes: also called pGBKT7_synthEPYC1 α-helix knockout 1 (probably)
B11: synthetic EPYC1 α-helix knockout B (first repeat region with a point mutation in the α-helix) (designed binder)
chain: B9 chain with E15W
notes: also called pGBKT7_synthEPYC1 α-helix knockout 2 (probably)
B12: synthetic EPYC1 modified α-helix 1 rep (first repeat region with a G-Q substitution near the α-helix) (designed binder)
chain: B9 chain with G22Q
notes: also called pGBKT7_synthEPYC1 modified α-helix 1rep

Biological target: T1, C. reinhardtii Rubisco small subunit 1 (S1Cr), mature (Chlamydomonas reinhardtii, UniProt P00873 46-185)
T1 construct: also called RbcS1; Cre02.g120100.t1.2
Assay: yeast two-hybrid (FIG. 4J)
Procedure: (§1) Competent yeast cells (Y2H Gold, Clontech) were prepared from a 50 ml culture grown in YPDA medium supplemented with kanamycin (50 μg ml⁻¹). Cells were washed with ddH2O and a lithium acetate/TE solution (100 mM LiAc, 10 mM Tris-HCl [pH 7.5], 1 mM EDTA) before re-suspending in lithium acetate/TE solution. Cells were then co-transformed with binding and activation domain vectors by mixing 50 μl of competent cells with 1 μg of each plasmid vector and a PEG solution (100 mM LiAc, 10 mM Tris-HCl [pH 7.5], 1 mM EDTA, 40% [v/v] PEG 4000). Cells were incubated at 30° C. for 30 min, then subjected to a heat shock of 42° C. for 20 min. The cells were centrifuged, re-suspended in 500 μl YPDA and incubated at 30° C. for ca 90 min, then centrifuged and washed in TE (10 mM Tris-HCl [pH 7.5], 1 mM EDTA). The pellet was re-suspended in 200 μl TE, spread onto SD-L-W (standard dextrose medium (minimal yeast medium) lacking leucine and tryptophan, Anachem) and grown for 3 days at 30° C. Ten to fifteen of the resulting colonies were pooled per co-transformation and grown in a single culture for 24 hrs. The following day 1 ml of culture was harvested, cell density (OD₆₀₀) measured, centrifuged and then diluted in TE to give a final OD₆₀₀ of 0.5 or 0.1.
(§2) Yeast cultures were then plated onto SD-L-W (yeast synthetic minimal media lacking leucine (L) and tryptophan (W)) and SD-L-W-H (yeast synthetic minimal media lacking L, W, and histidine(H)) (Anachem). Yeast expressing both binding and activation domain constructs was grown on SD-L-W to confirm presence of both plasmids. To assess interaction strength, yeast was plated onto SD-L-W-H with differing concentrations of the HIS3 inhibitor 3-aminotriazole (3-AT). These plates were then incubated for 3 days before assessing for presence or absence of growth, to perform a semi-quantitative yeast two-hybrid assay as in van Nues and Beggs (van Nues and Beggs, Genetics (2000) 157: 1451-1467). The same yeast transformation was used for each interaction study. Different colonies on the same yeast transformation plate were considered independent biological replicates (as for E. coli). Two biological replicates (top and bottom row for each interaction) were spotted from different liquid culture concentrations (0.5 and 0.1 OD). Each interaction experiment was performed at least twice.

| binding result | Binder |
| --- | --- |
| binds | B1 |
| binds | B2 |
| binds | B3 |
| binds | B4 |
| binds | B5 |
| no binding | B6 |

Biological target: T1, C. reinhardtii Rubisco small subunit 1 …
Assay: yeast two-hybrid (FIG. 5E)
Procedure: as §1, §2

| binding result | Binder |
| --- | --- |
| binds | B7 |
| no binding | B8 |
| binds | B9 |
| no binding | B10 |
| no binding | B11 |
| binds | B12 |

Biological target: T2, 1AAtMOD (α-helices): A. thaliana SSU 1A with its two α-helices replaced with C. reinhardtii α-helices (Arabidopsis thaliana with parts of …)
T2 construct: also called pGADT7_1AAtMOD(α-helices); hybrid 1A SSU
Assay: yeast two-hybrid (FIG. 5E)
Procedure: as §1, §2

| binding result | Binder |
| --- | --- |
| binds | B7 |
